In PMC5465037:

Biological target: wild-type desmin, human (human) (UniProt P17661)
Assay: co-sedimentation

- percent of desmin pelleted at 22 °C: 83.8%
- percent of desmin pelleted at 37 °C: 93.3%
- percent of desmin pelleted at 44 °C: 94.3%
Substance: wild-type desmin, human (from UniProt P17661 1-470) (natural protein)
